B1: #2 (ssDNA)
DNA: CAGCACCGTCAACTGAATCCGTCACTCGCTCGGGGGTCCGACATTTACCCTGTGAAATGTGATGCGATGGAGATGT
B2: #3 (ssDNA)
DNA: CAGCACCGTCAACTGAATAGGAAGATACCCGGGGGTACCGTTACCGCTGTGAACGGAGGTGATGCGATGGAGATGT
B3: IDO-APT (#4) (ssDNA)
DNA: CAGCACCGTCAACTGAATGCCAACGGCATATCCGGACAGGCGGGAACCTAGGGCCTTTGTGATGCGATGGAGATGT
B4: #1 (ssDNA)
DNA: CAGCACCGTCAACTGAATATCAGGACGGACCTGGGGAGGTCAGTTAGCCCTCTGAACTGTGATGCGATGGAGATGT

How the values were obtained:
mouse IDO1 [1] = target: T1, mouse IDO1 (Mus musculus, UniProt P28776 1-407); assay: flow cytometry on protein-coated beads
T1 sequence (P28776 whole entry): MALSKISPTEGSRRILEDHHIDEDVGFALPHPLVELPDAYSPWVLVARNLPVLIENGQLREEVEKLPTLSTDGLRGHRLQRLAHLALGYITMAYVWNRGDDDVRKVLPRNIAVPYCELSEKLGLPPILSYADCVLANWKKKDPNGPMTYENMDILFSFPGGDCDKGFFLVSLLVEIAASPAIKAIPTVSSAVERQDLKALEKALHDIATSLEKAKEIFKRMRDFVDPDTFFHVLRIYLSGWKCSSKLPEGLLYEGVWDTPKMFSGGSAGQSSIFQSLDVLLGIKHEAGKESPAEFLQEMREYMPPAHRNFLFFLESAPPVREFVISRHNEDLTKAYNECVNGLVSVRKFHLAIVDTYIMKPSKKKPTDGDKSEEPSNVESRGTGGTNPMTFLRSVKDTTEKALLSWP

mouse IDO1 [2] = target: T1, mouse IDO1; assay: flow cytometry on protein-coated beads; remark: listed apart in the source

Row | Binder | binding result (mouse IDO1 [1]) | Kd (mouse IDO1 [2]) [nM]
1 | B1 | binds | –
2 | B2 | binds | –
3 | B3 | – | 131 ± 9
4 | B4 | binds | –
